According to patent US20090280128A1:

What was measured:
[1] = target: C-FLAG ILT7 (human ILT7 with FLAG tag at the C terminus, co-expressed with Myc-FcRγ) (human) (UniProt P59901); assay: flow cytometry on ILT7-CHO cells, control antibody, APC goat anti-mouse IgG then FITC donkey anti-goat IgG
[2] = target: C-FLAG ILT7 (human ILT7 with FLAG tag at the C terminus, co-expressed with Myc-FcRγ) (human) (UniProt P59901); assay: flow cytometry on ILT7-CHO cells, control antibody, APC-labeled goat anti-mouse IgG

Chain of C-FLAG ILT7 (human ILT7 with FLAG tag at the C terminus, co-expressed with Myc-FcRγ) (human) (P59901 other isoform, or with tags, fused parts or gaps): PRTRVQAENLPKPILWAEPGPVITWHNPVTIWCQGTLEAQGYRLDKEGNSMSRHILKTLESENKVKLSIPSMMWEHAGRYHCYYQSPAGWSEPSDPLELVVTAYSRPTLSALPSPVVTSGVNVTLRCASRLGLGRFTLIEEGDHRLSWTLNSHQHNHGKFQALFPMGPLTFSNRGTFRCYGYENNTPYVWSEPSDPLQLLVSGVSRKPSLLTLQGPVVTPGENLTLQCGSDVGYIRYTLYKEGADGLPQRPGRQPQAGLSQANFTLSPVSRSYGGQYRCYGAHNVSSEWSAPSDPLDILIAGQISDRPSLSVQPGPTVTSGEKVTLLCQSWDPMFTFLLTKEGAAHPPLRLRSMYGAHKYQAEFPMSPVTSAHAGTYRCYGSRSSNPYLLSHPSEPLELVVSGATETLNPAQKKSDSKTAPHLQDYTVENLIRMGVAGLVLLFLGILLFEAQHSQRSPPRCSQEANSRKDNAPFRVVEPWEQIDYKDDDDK

FITC mean fluorescence intensity, incubation at 4 °C [1]: 3.7 | FITC mean fluorescence intensity, incubation at 37 °C [1]: 4.2 | APC mean fluorescence intensity, incubation at 4 °C [2]: 3 | APC mean fluorescence intensity, incubation at 37 °C [2]: 3.64
Substance: Mouse IgG2a (antibody)
